# From the nanobody polyreactivity screen of Harvey et al. (2022)
# Test: yeast display, Sf9 membrane polyspecificity reagent, FACS + sequencing; frameworks hold sequencing errors
# Summary of the method: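 Synthetic nanobody libraries on Saccharomyces cerevisiae BJ5465 were galactose-induced for 36–48 hours, stained 1 hour at 4 °C with 10% biotinylated, detergent-solubilized Sf9 membrane reagent and enriched on streptavidin microbeads. FACS then separated cells into low and high (top ~1%) gates by anti-HA (expression) and streptavidin (reagent binding) fluorescence. Genes were colony-PCR amplified, MiSeq 2 × 250 sequenced and CDR-length filtered. A clone's polyreactivity label is that of its gate of origin.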
row,Sequence,polyreactivity (PSR sort gate)
1,QVQLVDSGGGLVQAGGSLRLSCSASGSTFSVYAMGWYRQAPGKERELVAAITSGGSTNYADSVKGRFTISRDNAKNTVYLQMNSLKPEDTAVFYCNAYYVLIGYQPHWGYYWGQGTQVTVSS,low polyreactivity
2,QVQLVDSGGGLVQAGGSLRLSCSASGYNFIGYAMGWYRQAPGKERELVATITSGGSTNYADSVKGRFTISRDNAKNTVYLQMNSLNPEDTAVYYCAAGRGRYFYSWRYLYAIFDYWGQGTQVTVSS,low polyreactivity
3,QVQLVDSGGGLVQAGGSLRLTCAASGRIFYYNPMGWNRQAPGIVRELVDAINMISGSTYYADSVKGRFTISRDNAKNSVYFQMNSLKPEDTAVYYCAAQGVDTRIFFSFGFDYWGQGTQVNVSS,high polyreactivity
4,QVQLVDSGGGLVQAGGSLRVSCAASGNTFVTNAMGWSRQAPGKERELDAAITASVTSTYYADSVKGRFTISRDNAKITVYLQLNSLKPEDPAVYYCAAKTYSRKRVRMDYWGQGTQVTVSS,high polyreactivity
5,QVQLVDSGGGLVQAGGSLRVSCAASGSILPLNAMGWYRQGPGKERELVADISWSGGDTYYADSVKGRFTISRDNAKNTVYLQMNSLKPEDTSVYYCAADLHTELYKMDYWGQGTQVTVSS,low polyreactivity
6,QVQLVDSGGGLVQAGGSRRVSCAASAFTFLWNAMGWYRQAPGKEREMVAAINGNSGNTYYADSVKGRFTLSVDNAKNTVYLQMNSMKAEDTAVYYCAKQGNNIPCYRPYGDYYYWGQGTQVTVSS,low polyreactivity
7,QVQLVDSGGGLVQAGGTLRLSCAASGRTIYRNDMGWYRQAPGQERELVAAITSSGGTTYADSVKGRFTISRDNAKNTGYLQMNSLKPEDTAVYYCAAVYAYPNIYDYWGQGTQVTVSS,low polyreactivity
8,QVQLVDSGGGLVQAGVSLRLSCAASGFTFVFYAMGWYRQAPGKERELVAAISGRGGSTYYADSVKGRFTISRDNAKNTVYLQMNSLKPEDTAVYYCNALYVYRSVANFDYWGQGTQVTVSS,high polyreactivity
9,QVQLVDSGGGLVQAVGSLRLSCAASGGIFVPNAMGWYRQAHGKVRELVAAIYYSGGRTYYADSVKGSFTISRDNAKNTVYLQMNRLKPEDTAVYYCAAEYWFVFHHYNYFGQGTQVTVSS,high polyreactivity
10,QVQLVDSGGGLVQAVGSLRLSCAASGITFDEYAMGWYRQAPGKERELVAAISVSGGDTYYADSVKGRFTISRDNAKNNVYLQMNSLKPEDTAVYYCNARWGTPYYIQDFDYWGLGTQVTVSS,low polyreactivity
11,QVQLVDSGGGVVQAGGSLRLSCPASGIILRRYAMGWYRQAQGKERELVARISYRGGRTNYADSVKGRFTISRDNAKNTVYLQMNSLKPEDTAVYYCAAVAWDYHEGTAYNYWGQGTQVTVSS,high polyreactivity
12,QVQLVDSGGGVVQEGGSLRLSCAASGIISLFNVMGWYRQAPGKERELVASITGRGGSTFYADSVKGRFTISRDNAKNTVYLQMNSLQPEESGVYYCATDTGDTYPVNGLYDYWGHGTQVTVSS,low polyreactivity
13,QVQLVDSGGRLVQAGGSLRLSCAASGFIFGTNAMGWYRQAPGKERELVASISSTGGSTYYADSVKGRCTISRDNAKNTVYLQMNILKPEETAVYYCAADPYPEYIRYLPGVDYSGQGTQVTVSS,low polyreactivity
14,QVQLVDSGGVLVQAGGSLRLICAASGNTFAYYTLGWYRQAPGKEMELVAAIDYSGGSTYYADSVKGRFTISRDNAKNTVYLQMNSLKPEDTAVYYCASDYRWHFSESLGWFYEYGYWGQGTQVTVSS,low polyreactivity
15,QVQLVDSRGGLVQAGGSLRLSCAASGIIFGYYAMGWYRQAPGKERELVAAITWSGGSTYYADSVKGSFTISRDNAKNTVYLQMNSLKPEDTAVYYCAASAYVQPYDYWGQGTQVTVSS,high polyreactivity
16,QVQLVDSRGGLVQAGGSLRLSCAASGSTYLRNVMGSYRQAPGKERELVAAISSRGGSTHYADSVKGRFTISRDNAKNTVYLQMNSMKPEDTAVYYSNAERTAAQYVRAAYDFWGEGTQVTVSS,low polyreactivity
17,QVQLVDSRRGLVQAGGSLRLSCAASGRIFGYNAMGWYREAPGKVRELVAAISSGGGTNYADSVKGRFTISRDNAKNPVYLQMHSLKPEDTAVYYCAVRRRRYHTYYRGYDYWGQGTQVTVSS,low polyreactivity
18,QVQLVDSVGGLVQAGGSLPLICAASGSTFGNYAKGWYRQAPGKERELVAAINSGDSTSYADSVKGRFTISRDNANNTVYLHMNSLKPEDTAVYYCSVRPRRNQYGYWGQGTQLTVSS,low polyreactivity
19,QVQLVDSVGGLVQAGGSLRLSCAASGSTFVYNTMGWYRQEPGKEREMVAAISYRGSTYYADSVKGRFTISRENAKNTVFLQMNSLKPEDNAVYYCNAPRRQYEYDYWGQGTQVTVSS,high polyreactivity
20,QVQLVDTGGGLVQAGGSLRLSCAASGITFYFYVMGWYRQAPGKERELVADISTSDDSTYYADSVKGRFTISRDNAKNTVYLQMNSLKPEDTAVYYCATATRTYSAWYEYVYWGQGTQVTVSS,low polyreactivity
21,QVQLVEAGGGLDQPGGSLRLSCAASGSTFYVNTRRWYIQAPGQELELVAAISSTGSSTYFADSVKGRFTISRDNAKNTVYLQMNSLKPEDTAVYYCAAESYRWWYLYDYYYWGQGTQVTVSS,high polyreactivity
22,QVQLVEAGGGLVQAGGSLRLSCAASAFTFSPTAMGWYRQAPGKERELGAAIDWSGDRTYYADSVKGRFTISRAHAKNTVYLQMNSLKPEDTGVYYCNVVRRSPGDYSYYYWGQGSQVTVSS,low polyreactivity

row,Sequence,polyreactivity (PSR sort gate)
1,QVQLVEAGGGLVQAGGSLRLSCAASGFIFPSYVRGWYSQAPGKERELVATISRSGGSTYYADSVKGRFTISRDNAKNTGYLQMNSLKPEDTAVYYCATRRRGPYSPYSPYDYWGQGTQVTVSS,high polyreactivity
2,QVQLVEAGGGLVQAGGSLRLSCAASGFILENYAMGWNRQAPGKERELVAAISGSGGTTYYADSVKGRFTISRDNAKNTVYLQMNSLKPEDTAVYYCNRDRLLRQYDYWGQGTQVTVSS,high polyreactivity
3,QVQLVEAGGGLVQAGGSLRLSCAASGGTFNSNAMGWYRQAPGKERELGASITWRGGTYYADSVKGRFTISRDNAKNTVYLQMNSLKPEDTAVYYCAARGTIPGIHWIYYYWGQGTQVTVSS,high polyreactivity
4,QVQLVEAGGGLVQAGGSLRLSCAASGIIFYLYTMGWYRPAPGKERELVAAISSSDGSTYYADSVKGRFTISRDNAKNTVYLQMNSLKPEDTAVYYCAAEYRGYLDDYYYWGQGTQVTVSS,high polyreactivity
5,QVQLVEAGGGLVQAGGSLRLSCAASGITLYLYVMGWYRQAPGKEREFVAAIRWSGGSTYYADSVKGRFTISRDNAKNTVYLQMNSLKPEDTAVYYCNAEVYCYYSARRPGYEYWGQGTQVTVSS,low polyreactivity
6,QVQLVEAGGGLVQAGGSLRLSCAASGSIFGYYAMGWYRQAPGKERELVAAISYRGGSTYYADSVKGRFTISRDNAKNTVYLQMNSLKPEDTAVYYCNAGGRRRIFAHSSTGDYWGQGTQVTVSS,high polyreactivity
7,QVQLVEAGGGLVQAGGSLRLSCAASGSIFSHNAMGWYRQAPGKERELVAAISVSGGTTYYADSVKGRFTISRDNAKNTVYLQMNSLKPEDTAVYYCAAKRFQGVGYLGQGTQVTVSS,high polyreactivity
8,QVQLVEAGGGLVQAGGSLRLSCAASGSIFVGYAMGWYRPAPGKEREFVAAINYRGGATYYADSVKGRFTISRDNAKNTDYLQMNSLQPEDTAVYYCAVGGWVIYPASLDYWGQGTQVTVSS,low polyreactivity
9,QVQLVEAGGGLVQAGGSLRLSCAASGYTFGKNAMGWYRQAPGKERELVAAITYSGGSTYYADSVKGRFTISRDNAKNTVYLQMNSLKPEDTAVYYCAADNPSDVYDTWVYYWGQGTQVTVSS,high polyreactivity
10,QVQLVEAGGGLVQAGGSLRLSCASSGNTFYPYAMGWYRQAPGKERELVAVITSGTDTYYADSVKARFTISRDNAKNTVYLQMNSLKPEDTAVYYCAASLYWRYGYWGQGTQVTVSS,high polyreactivity
11,QVQLVEAGGGLVQAGGSLRLTCAASGPIFLSKAMGWYRQAPGTERELVAAINSGGNTDYADSVKARFTISRDNEKNTFYLQMNSLKPEDTAVYYCAADAFSWDHDYWGQGTQVTVSS,low polyreactivity
12,QVQLVEAGGGLVQAGGSLRLTCAASVRTFTGYAMGCYRQAPGTERELVAAMTLSGGSTYYADSVKGRFTISRDNAKNTVYLQMNSLKPEDTAVFYCAAKWWHFYPYDYWGQGTQVTVSS,high polyreactivity
13,QVQLVEAGGGLVQAGGTLRLSCDPSGLIFGLYAMGWYRHAPGKERELVAAISESGGGITYYADSVKGRFTISRDNAKNTVYLQMYSLKPEDTAVYYCNADRYVWAGFDFSTYDYWGQGTLVTVSS,low polyreactivity
14,QVQLVEAGGGLVQSGGSLRLSCAASGSIFNIYAMGWSRQAAGKDRELVAVISSRGGRSYYADSVKGRFTISRDNAKNTVYLQMTSLKPEDTAVYYCAAGYLRQGYRGYDYWGQGTQVTVSS,high polyreactivity
15,QVQLVEAGGGVVQAGGSLRLSCAASGIIFYPYALGWYRQAPGKERELVADITSGGGTNYADSVKGRFTISRDNAKNTVYLQMNSLKPEDTAVYDCAAEVRGYHWGTYYEFYYWGQGTQVTVSS,low polyreactivity
16,QVQLVEAVGGLVQAGGSLRLSCAASGNTYYGNAMGWYRQAPGKEREFVAAITIRTGSTYYADSVKGRFTISRDNAKNTVYLQMNSLKPDDTAVYYCAADAYWRWNWYDYWGQGTQVTVSS,high polyreactivity
17,QVQLVEEGGGLVQAGGSLSLSCAASGRIFKTNSMGWYIQAPGKERELVAGSTDSGDSTYYADSVKGRFTISRDNAKNTVYLQMNSLKPEDTAVYYCATDPASPYIYDYWGQGTQVTVSS,low polyreactivity
18,QVQLVEKGGGLVQAGGSLRLSCAASGRTFRSNAMGWYRQAPGKERELVAAIRSRGGSTYYADSVKGRFTISRDNAKNTVYLQMNSLKPEDTAVYYCAAKHGSTSHDSWGQGTQVTVSS,high polyreactivity
19,QVQLVEPGGGLVQAGGSLRLSCAASGFTFYDYAMGWYRQAPGKERELVARINGGGGTNYADSVKGRFTISRDNAKNTVYLQMNSLKPEDSAVYYCAADLYFRQGDVDLLRYDYWGQGTQVTVSS,low polyreactivity
20,QVQLVEPGGGLVQAGGSLRLSCAASGSIFAYYVMGWYRQAPGKERELVAGISFSGGTTYYADSVNGRFTISRDNAKNTVYLQMNSLKPEDTAVYYCNADPDHREFDYWGQGTQVTVSS,low polyreactivity
21,QVQLVESAAGLVQAGGSLRLSCAASGGIFHGYAMGWYRHAPGKERELVAAISWSTGSTYYADSVKGRFTISRDNAKNTVYLQMNSLKPEDTAVYYCAARYLSGTSRYYYWGQGTQVTVSS,high polyreactivity
